Test results from US20220119534A1 (DRAGONFLY THERAPEUTICS, published 2022).
Several values for one entry are separate records, joined by “and”; a condition that tells them apart may be missing. Identical values can stand only once. Values belong to the binder of their own block, whether it stands above or below them.

Columns and labels:
Human CLEC12A-His [1] = molecular target: T1, Human CLEC12A-His (human, UniProt Q5QGZ9 65-265); test: SPR Biacore 8K 37 C; TriNKET captured on anti-hFc chip, hCLEC12A-His as analyte; 1:1 fit; after 0.02% H2O2 24 h, n=2
T1 construct: Recombinant soluble protein made in house (Dragonfly Tx); The hCLEC12A spot of the HuProt array is written under this molecule as well; also called hCLEC12A-His; hCLEC12A; not shown: His tag
T1 sequence: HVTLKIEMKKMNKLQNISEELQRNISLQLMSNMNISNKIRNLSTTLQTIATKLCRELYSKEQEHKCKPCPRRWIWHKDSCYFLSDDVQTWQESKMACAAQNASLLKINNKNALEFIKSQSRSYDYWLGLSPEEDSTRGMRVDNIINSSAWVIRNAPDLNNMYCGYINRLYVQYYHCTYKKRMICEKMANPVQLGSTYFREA

mFc-hNKG2D [2] = molecular target: T2, mFc-hNKG2D (human, UniProt P26718 73-216); test: SPR Biacore 8K 37 C; mFc-hNKG2D captured on anti-mFc chip, TriNKET as analyte; steady state fit; pH 5.0 control
T2 construct: extracellular domain; Made in house (Dragonfly Tx); the order of tag and ECD follows the name mFc-hNKG2D; also called mFc-tagged human NKG2D; not shown: mouse Fc tag
T2 sequence (looked up): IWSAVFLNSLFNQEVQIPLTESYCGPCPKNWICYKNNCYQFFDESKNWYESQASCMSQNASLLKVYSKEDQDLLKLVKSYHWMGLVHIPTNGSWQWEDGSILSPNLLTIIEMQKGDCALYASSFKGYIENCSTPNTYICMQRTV

mFc-hNKG2D [3] = molecular target: T2, mFc-hNKG2D; test: SPR Biacore 8K 37 C; mFc-hNKG2D captured on anti-mFc chip, TriNKET as analyte; 1:1 kinetic fit; after low pH hold, n=3
mFc-hNKG2D [4] = molecular target: T3, mFc-hNKG2D (human, UniProt P26718 73-216); test: SPR; control sample (CST pH 7.0 study)
T3 construct: extracellular domain; Recombinant mFc-tagged NKG2D dimer, made in house; also called human NKG2D; not shown: mouse Fc tag
T3 sequence (looked up): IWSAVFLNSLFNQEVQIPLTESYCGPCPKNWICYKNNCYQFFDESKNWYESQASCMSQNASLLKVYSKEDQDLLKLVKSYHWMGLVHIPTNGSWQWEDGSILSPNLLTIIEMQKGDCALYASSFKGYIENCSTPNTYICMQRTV

Human CLEC12A-His [5] = molecular target: T4, Human CLEC12A-His (human, UniProt Q5QGZ9 65-265); test: SPR; control sample (CST pH 7.0 study)
T4 construct: Recombinant soluble protein made in house; also called hCLEC12A-His; hCLEC12A; not shown: His tag
T4 sequence: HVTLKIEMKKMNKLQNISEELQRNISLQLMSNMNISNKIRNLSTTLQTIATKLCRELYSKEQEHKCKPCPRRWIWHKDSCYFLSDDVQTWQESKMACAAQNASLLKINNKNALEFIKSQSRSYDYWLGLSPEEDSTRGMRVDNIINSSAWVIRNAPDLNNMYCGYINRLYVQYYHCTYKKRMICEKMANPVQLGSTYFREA

Human CD16a V158 [6] = molecular target: T5, Human CD16a V158 (human, UniProt P08637 17-208, biotinylated); test: SPR; control sample (CST pH 7.0 study)
T5 construct: Bought recombinant receptor; also called hCD16a (V158); hFcγRIIIa V158

mFc-hNKG2D [7] = molecular target: T3, mFc-hNKG2D; test: SPR; sample after forced oxidation (0.02% H2O2, 24 h)
Human CD16a V158 [8] = molecular target: T5, Human CD16a V158; test: as above
[9] = molecular target: T6, recombinant cynomolgus CD16 (cynomolgus monkey, UniProt Q8SPW2 17-208, biotinylated); test: SPR 25C, steady state
T6 construct: also called cFcγRIII; cyno CD16
Description: Human and cyno CD64, high and low affinity alleles of CD16a (V158 and F158, respectively), two alleles of CD32a (H131 and R131), CD16b, CD32b and cynomolgus CD16 were captured via biotin on a primed Biacore chip, prepared according to the manufacturer's instructions.

[10] = molecular target: T7, recombinant human CLEC12A-His (human, UniProt Q5QGZ9 65-265); test: SPR 37C, TriNKET captured on anti-hFc
T7 construct: also called hCLEC12A-His; hCLEC12A
T7 sequence: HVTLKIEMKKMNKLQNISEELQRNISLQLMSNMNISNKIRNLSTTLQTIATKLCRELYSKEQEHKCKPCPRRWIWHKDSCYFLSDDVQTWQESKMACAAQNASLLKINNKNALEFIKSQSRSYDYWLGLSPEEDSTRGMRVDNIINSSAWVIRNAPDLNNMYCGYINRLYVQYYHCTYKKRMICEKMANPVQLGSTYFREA
Protocol: Briefly, human Fc specific antibodies were covalently immobilized at a density of about 8000-10000 resonance units (RU) on carboxy methyl dextran matrix of a CM5 biosensor chip to create an anti-hFc IgG chip. […] Association was monitored for 300 seconds, and dissociation was monitored for 900 seconds. Surfaces were regenerated between cycles with three pulses of 10 mM glycine-HCl (pH 1.7) injected for 20 seconds at 100 μL/min.

[11] = molecular target: T7, recombinant human CLEC12A-His; test: SPR
recombinant human CD32b = molecular target: T8, recombinant human CD32b (human, UniProt P31994 46-217, limits assumed, biotinylated); test: SPR 25C, steady state
T8 construct: also called FcγRIIb
T8 sequence (looked up): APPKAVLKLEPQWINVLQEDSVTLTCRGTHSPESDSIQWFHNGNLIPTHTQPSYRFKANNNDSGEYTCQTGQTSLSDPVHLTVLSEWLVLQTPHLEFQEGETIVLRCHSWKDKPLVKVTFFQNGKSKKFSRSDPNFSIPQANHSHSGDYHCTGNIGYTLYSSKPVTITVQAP

T6 sequence (Q8SPW2 17-208 limits assumed): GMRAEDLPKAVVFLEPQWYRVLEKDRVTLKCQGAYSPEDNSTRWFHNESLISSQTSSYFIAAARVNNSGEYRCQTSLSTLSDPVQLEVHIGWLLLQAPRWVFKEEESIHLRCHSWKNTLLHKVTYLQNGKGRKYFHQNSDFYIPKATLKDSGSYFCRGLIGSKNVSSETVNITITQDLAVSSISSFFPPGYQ
T5 sequence (P08637 17-208 F176V limits assumed): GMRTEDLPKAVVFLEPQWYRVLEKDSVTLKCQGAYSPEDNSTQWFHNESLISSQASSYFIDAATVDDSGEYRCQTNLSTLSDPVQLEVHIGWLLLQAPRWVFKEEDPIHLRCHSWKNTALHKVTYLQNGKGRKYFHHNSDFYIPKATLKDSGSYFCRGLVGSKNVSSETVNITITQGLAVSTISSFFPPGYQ

Kd (Human CLEC12A-His [1]): 1.1 nM
koff (Human CLEC12A-His [1]): 0.00087 s⁻¹
kon (Human CLEC12A-His [1]): 806000 M⁻¹ s⁻¹
Kd (mFc-hNKG2D [2]): 684 nM
Kd (mFc-hNKG2D [3]): 671 nM
koff (mFc-hNKG2D [3]): 0.139 s⁻¹
kon (mFc-hNKG2D [3]): 207000 M⁻¹ s⁻¹
B1: F3'-1602 TriNKET (bispecific antibody, human IgG1, kappa)
chain: QLQLQESGPGLVKPSETLSLTCTVSGFSLTNYGLHWIRQPPGKCLEWIGVIWSGGKTDYNPSLKSRVTISKDTSKNQFSLKLSSVQAADTAVYYCAKYDYDDSLDYWGQGTLVTVSSGGGGSGGGGSGGGGSGGGGSDIQMTQSPSSLSASVGDRVTITCHASQNINFWLSWYQQKPGKAPKLLIYEASNLHTGVPSRFSGSGSGTRFTLTISSLQPEDIATYYCQQSHSYPLTFGCGTKLEIKGSDKTHTCPPCPAPELLGGPSVFLFPPKPKDTLMISRTPEVTCVVVDVSHEDPEVKFNWYVDGVEVHNAKTKPREEQYNSTYRVVSVLTVLHQDWLNGKEYKCKVSNKALPAPIEKTISKAKGQPREPRVYTLPPCRDELTKNQVSLTCLVKGFYPSDIAVEWESNGQPENNYKTTPPVLVSDGSFTLYSKLTVDKSRWQQGNVFSCSVMHEALHNHYTQKSLSLSPG
heavy: EVQLVESGGGLVKPGGSLRLSCAASGFTFSSYSMNWVRQAPGKGLEWVSSISSSSSYIYYADSVKGRFTISRDNAKNSLYLQMNSLRAEDTAVYYCARGAPIGAAAGWFDPWGQGTLVTVSSASTKGPSVFPLAPSSKSTSGGTAALGCLVKDYFPEPVTVSWNSGALTSGVHTFPAVLQSSGLYSLSSVVTVPSSSLGTQTYICNVNHKPSNTKVDKKVEPKSCDKTHTCPPCPAPELLGGPSVFLFPPKPKDTLMISRTPEVTCVVVDVSHEDPEVKFNWYVDGVEVHNAKTKPREEQYNSTYRVVSVLTVLHQDWLNGKEYKCKVSNKALPAPIEKTISKAKGQPREPQVCTLPPSRDELTENQVSLTCLVKGFYPSDIAVEWESNGQPENNYKTTPPVLDSDGSFFLYSWLTVDKSRWQQGNVFSCSVMHEALHNHYTQKSLSLSPG
light: DIQMTQSPSSVSASVGDRVTITCRASQGISSWLAWYQQKPGKAPKLLIYAASSLQSGVPSRFSGSGSGTDFTLTISSLQPEDFATYYCQQGVSFPRTFGGGTKVEIKRTVAAPSVFIFPPSDEQLKSGTASVVCLLNNFYPREAKVQWKVDNALQSGNSQESVTEQDSKDSTYSLSSTLTLSKADYEKHKVYACEVTHQGLSSPVTKSFNRGEC
notes: Trispecific F3' format: CLEC12A scFv-Fc paired with NKG2D Fab-Fc; Stressed and control samples of the stability studies are the same molecule; also called AB0237

Kd (mFc-hNKG2D [4]): 588 nM
koff (mFc-hNKG2D [4]): 0.122 s⁻¹
kon (mFc-hNKG2D [4]): 208000 M⁻¹ s⁻¹
Kd (Human CLEC12A-His [5]): 1.81 nM
koff (Human CLEC12A-His [5]): 0.0014 s⁻¹
kon (Human CLEC12A-His [5]): 776000 M⁻¹ s⁻¹
Kd (Human CD16a V158 [6]): 171 nM
koff (Human CD16a V158 [6]): 0.0199 s⁻¹
kon (Human CD16a V158 [6]): 117000 M⁻¹ s⁻¹
Kd (mFc-hNKG2D [7]): 612 nM
koff (mFc-hNKG2D [7]): 0.119 s⁻¹
kon (mFc-hNKG2D [7]): 195000 M⁻¹ s⁻¹
Kd (Human CD16a V158 [8]): 162 nM
koff (Human CD16a V158 [8]): 0.0192 s⁻¹
kon (Human CD16a V158 [8]): 119000 M⁻¹ s⁻¹
B2: AB0192 TriNKET (other)
chain: EVQLVESGGGVVQPGGSLRLSCAASGFTFNAFGMHWVRQAPGKCLEWVAFISSGSTSIYYANTVKGRFTISRDNSKNTLYLQMNSLRAEDTAVYYCARDGYPTGGAMDYWGQGTSVTVSSGGGGSGGGGSGGGGSGGGGSDIQMTQSPSSLSASVGDRVTITCKASQDIYNYLSWFQQKPGKAPKPLIYRANILVSGVPSRFSGSGSGQDYTFTISSLQPEDIATYYCLQFDAFPFTFGCGTKLEIKGSDKTHTCPPCPAPELLGGPSVFLFPPKPKDTLMISRTPEVTCVVVDVSHEDPEVKFNWYVDGVEVHNAKTKPREEQYNSTYRVVSVLTVLHQDWLNGKEYKCKVSNKALPAPIEKTISKAKGQPREPRVYTLPPCRDELTKNQVSLTCLVKGFYPSDIAVEWESNGQPENNYKTTPPVLVSDGSFTLYSKLTVDKSRWQQGNVFSCSVMHEALHNHYTQKSLSLSPG
heavy: EVQLVESGGGLVKPGGSLRLSCAASGFTFSSYSMNWVRQAPGKGLEWVSSISSSSSYIYYADSVKGRFTISRDNAKNSLYLQMNSLRAEDTAVYYCARGAPIGAAAGWFDPWGQGTLVTVSSASTKGPSVFPLAPSSKSTSGGTAALGCLVKDYFPEPVTVSWNSGALTSGVHTFPAVLQSSGLYSLSSVVTVPSSSLGTQTYICNVNHKPSNTKVDKKVEPKSCDKTHTCPPCPAPELLGGPSVFLFPPKPKDTLMISRTPEVTCVVVDVSHEDPEVKFNWYVDGVEVHNAKTKPREEQYNSTYRVVSVLTVLHQDWLNGKEYKCKVSNKALPAPIEKTISKAKGQPREPQVCTLPPSRDELTENQVSLTCLVKGFYPSDIAVEWESNGQPENNYKTTPPVLDSDGSFFLYSWLTVDKSRWQQGNVFSCSVMHEALHNHYTQKSLSLSPG
light: DIQMTQSPSSVSASVGDRVTITCRASQGISSWLAWYQQKPGKAPKLLIYAASSLQSGVPSRFSGSGSGTDFTLTISSLQPEDFATYYCQQGVSFPRTFGGGTKVEIKRTVAAPSVFIFPPSDEQLKSGTASVVCLLNNFYPREAKVQWKVDNALQSGNSQESVTEQDSKDSTYSLSSTLTLSKADYEKHKVYACEVTHQGLSSPVTKSFNRGEC
notes: the condition stands under assay; also called AB0192 Lot AB0192-005

Kd [9]: 315 nM and 294 nM and 302 nM
Kd [10]: 0.58 nM and 0.59 nM and 0.57 nM and 0.6 nM
koff [10]: 0.000494 s⁻¹ and 0.000489 s⁻¹ and 0.000499 s⁻¹
kon [10]: 854000 M⁻¹ s⁻¹ and 833000 M⁻¹ s⁻¹ and 863000 M⁻¹ s⁻¹ and 826000 M⁻¹ s⁻¹
Kd [11]: 0.6 nM
koff [11]: 0.000496 s⁻¹
kon [11]: 826000 M⁻¹ s⁻¹
Kd (recombinant human CD32b): 7200 nM and 6100 nM and 6900 nM
B3: F3'-1602 TriNKET (other)
chain: QLQLQESGPGLVKPSETLSLTCTVSGFSLTNYGLHWIRQPPGKCLEWIGVIWSGGKTDYNPSLKSRVTISKDTSKNQFSLKLSSVQAADTAVYYCAKYDYDDSLDYWGQGTLVTVSSGGGGSGGGGSGGGGSGGGGSDIQMTQSPSSLSASVGDRVTITCHASQNINFWLSWYQQKPGKAPKLLIYEASNLHTGVPSRFSGSGSGTRFTLTISSLQPEDIATYYCQQSHSYPLTFGCGTKLEIKGSDKTHTCPPCPAPELLGGPSVFLFPPKPKDTLMISRTPEVTCVVVDVSHEDPEVKFNWYVDGVEVHNAKTKPREEQYNSTYRVVSVLTVLHQDWLNGKEYKCKVSNKALPAPIEKTISKAKGQPREPRVYTLPPCRDELTKNQVSLTCLVKGFYPSDIAVEWESNGQPENNYKTTPPVLVSDGSFTLYSKLTVDKSRWQQGNVFSCSVMHEALHNHYTQKSLSLSPG
heavy: EVQLVESGGGLVKPGGSLRLSCAASGFTFSSYSMNWVRQAPGKGLEWVSSISSSSSYIYYADSVKGRFTISRDNAKNSLYLQMNSLRAEDTAVYYCARGAPIGAAAGWFDPWGQGTLVTVSSASTKGPSVFPLAPSSKSTSGGTAALGCLVKDYFPEPVTVSWNSGALTSGVHTFPAVLQSSGLYSLSSVVTVPSSSLGTQTYICNVNHKPSNTKVDKKVEPKSCDKTHTCPPCPAPELLGGPSVFLFPPKPKDTLMISRTPEVTCVVVDVSHEDPEVKFNWYVDGVEVHNAKTKPREEQYNSTYRVVSVLTVLHQDWLNGKEYKCKVSNKALPAPIEKTISKAKGQPREPQVCTLPPSRDELTENQVSLTCLVKGFYPSDIAVEWESNGQPENNYKTTPPVLDSDGSFFLYSWLTVDKSRWQQGNVFSCSVMHEALHNHYTQKSLSLSPG
light: DIQMTQSPSSVSASVGDRVTITCRASQGISSWLAWYQQKPGKAPKLLIYAASSLQSGVPSRFSGSGSGTDFTLTISSLQPEDFATYYCQQGVSFPRTFGGGTKVEIKRTVAAPSVFIFPPSDEQLKSGTASVVCLLNNFYPREAKVQWKVDNALQSGNSQESVTEQDSKDSTYSLSSTLTLSKADYEKHKVYACEVTHQGLSSPVTKSFNRGEC
notes: CLEC12A scFv-Fc, NKG2D A49MI Fab-Fc, human IgG1 Fc; also called AB0237
